Test results taken from patent US10577424 (BEIJING MABWORKS BIOTECH, dated 2020).

Legend:
[1] = target: T1, monkey VISTA (ECD)-his (Sino Biological, Cat #: 90801-K08H) (cynomolgus monkey); test: direct ELISA, coated cynoVISTA(ECD)-his
T1 construct: extracellular domain; Bought protein; also called cynoVISTA(ECD)-his; cynomolgus VISTA (ECD)-his
Description: (§1) Species-cross-reactivity of the 28 VISTA mAbs to monkey or mouse VISTA was further assessed by direct ELISA. Briefly, 500 ng/ml monkey VISTA (ECD)-his (Sino Biological, CN, Cat #: 90801-K08H) or mouse VISTA-his (Sino Biological, CN, Cat #:511550-M08H) was coated on 96-well ELISA plates followed by incubation with 100 μl of serially diluted anti-VISTA antibodies (starting from 40000 ng/ml). Goat anti-mouse IgG conjugated with HRP (Sigma, US, Cat #:A9309-1 ml) was used then. Anti-VISTA antibody JNJ-VSTB174 (referred to as JNJ) (prepared using the amino acid sequences disclosed in WO 2015/097536 A2 with human IgG1/kappa constant regions) was used as the reference.

[2] = target: T2, human VISTA (ECD)-his (Sino Biological, Cat #:13482-H08H) (human, UniProt Q9H7M9 33-194); test: direct ELISA, coated hVISTA(ECD)-his
T2 construct: extracellular domain; Bought protein; also called hVISTA(ECD)-his; recombinant human VISTA(ECD)-his; not shown: his tag
T2 sequence (looked up): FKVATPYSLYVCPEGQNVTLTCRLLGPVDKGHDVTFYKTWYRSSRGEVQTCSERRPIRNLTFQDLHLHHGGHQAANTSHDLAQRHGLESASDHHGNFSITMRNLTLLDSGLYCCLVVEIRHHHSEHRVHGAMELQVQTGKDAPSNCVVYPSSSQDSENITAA
Description: ELISA plates were coated with 500 ng/ml human VISTA (ECD)-his (Sino Biological, CN, Cat #:13482-H08H) at 4° C. overnight. The wells were blocked with 200 μl of blocking buffer (PBS containing 1% BSA, 1% goat serum, and 0.05% Tween 20) for 2 hours at room temperature, and then 100 μl of serially diluted anti-VISTA antibodies (starting from 40000 ng/ml) were added to each well and incubated for 1 hour at RT. Plates were washed for 3 times with PBST (PBS+0.05% Tween 20), added with Goat-anti-mouse IgG-HRP (Simga, US, Cat #:A9309-1 ml) diluted 5000×, and incubated for 1 hour at RT. Plates were developed with freshly prepared Ultra-TMB (BD, US, Cat #:555214) for 5 minutes at RT. Absorbance was read on a SpectraMax® i3× (Molecular Devies, US) at 450 nm.

[3] = target: T3, monkey VISTA expressed on HEK293A cells (monkey (cynomolgus)); test: FACS on HEK-293A/cynoVISTA cells
T3 construct: also called HEK293A/cynoVISTA; HEK293A/monkey VISTA
T3 chain: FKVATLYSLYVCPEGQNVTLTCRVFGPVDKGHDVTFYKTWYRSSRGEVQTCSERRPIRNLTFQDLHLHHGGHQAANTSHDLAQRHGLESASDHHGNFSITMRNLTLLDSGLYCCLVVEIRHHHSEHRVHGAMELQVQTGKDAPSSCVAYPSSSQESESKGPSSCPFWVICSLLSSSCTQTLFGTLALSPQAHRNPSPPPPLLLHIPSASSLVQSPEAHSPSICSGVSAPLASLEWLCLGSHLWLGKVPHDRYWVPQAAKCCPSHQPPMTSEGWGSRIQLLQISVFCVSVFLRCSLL
Description: (§2) Example 5 Mouse Anti-VISTA Monoclonal Antibodies Bound to Human and Monkey VISTA Expressed on HEK293A Cells To further determine whether anti-VISTA antibodies bound to human, monkey or mouse VISTA expressed on HEK293A cells, a cell-based binding assay by FACS was performed using the HEK293A cells stably overexpressing human, monkey or mouse VISTA as generated in Example 1, respectively. Briefly, 10^5 HEK293A cells were seeded into each well of the 96-well plates and serially diluted anti-VISTA antibodies were added to the plates. After incubated at 4° C. for 1 hour, plates were washed 3 times with PBST. Then, an APC coupled Goat Anti-Mouse IgG (BioLegend, US, Cat #:405308) diluted 500× was added to the plates. After incubation at 4° C. for 1 hour, the plates were washed with PBS for 3 times and then cell fluorescence was monitored using a FACS machine (BD).

[4] = target: T4, mouse VISTA expressed on HEK293A cells (mouse, UniProt Q9D659 33-308); test: FACS on HEK293A/mouse VISTA cells
T4 construct: also called HEK293A/mouseVISTA; HEK293A/mouse VISTA
T4 sequence: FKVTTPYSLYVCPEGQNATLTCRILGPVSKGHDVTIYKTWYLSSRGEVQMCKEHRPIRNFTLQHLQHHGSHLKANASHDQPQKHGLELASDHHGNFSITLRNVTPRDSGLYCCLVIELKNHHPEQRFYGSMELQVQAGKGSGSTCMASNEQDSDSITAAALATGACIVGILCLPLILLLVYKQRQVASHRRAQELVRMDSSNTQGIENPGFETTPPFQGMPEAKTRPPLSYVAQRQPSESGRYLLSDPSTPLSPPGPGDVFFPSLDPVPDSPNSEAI
Description: as §2

[5] = target: T5, mouse VISTA-his (Sino Biological, Cat #:511550-M08H) (mouse, UniProt Q9D659 33-191); test: direct ELISA, coated mouse VISTA-his
T5 construct: extracellular domain; Bought protein; also called muVISTA-his; mouse VISTA (ECD)-his; not shown: his tag
T5 sequence (looked up): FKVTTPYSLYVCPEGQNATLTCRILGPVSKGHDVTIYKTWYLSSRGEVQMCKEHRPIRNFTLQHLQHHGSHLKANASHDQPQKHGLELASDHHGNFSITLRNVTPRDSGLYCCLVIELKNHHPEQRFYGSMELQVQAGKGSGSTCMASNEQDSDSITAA
Description: as §1

[6] = target: T6, human VISTA expressed on HEK293A cells (human, UniProt Q9H7M9 33-311); test: FACS blocking assay on HEK293A/human VISTA cells; competitor 200 µg/ml VSIG3-hFc
T6 construct: also called HEK293A/humanVISTA; HEK293A/human VISTA
T6 sequence: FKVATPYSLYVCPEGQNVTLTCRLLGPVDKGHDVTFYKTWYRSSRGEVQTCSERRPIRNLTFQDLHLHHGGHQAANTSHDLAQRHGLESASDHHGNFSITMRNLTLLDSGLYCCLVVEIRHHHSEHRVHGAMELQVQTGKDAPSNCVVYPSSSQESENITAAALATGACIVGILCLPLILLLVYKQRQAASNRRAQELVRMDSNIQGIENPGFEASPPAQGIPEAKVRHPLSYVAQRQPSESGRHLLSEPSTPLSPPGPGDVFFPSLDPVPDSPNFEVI
Description: A cell-based blocking assay by FACS was performed using the HEK293A cells stably overexpressing human VISTA as generated in Example 1. Briefly, 10^5 HEK293A/human VISTA cells were seeded into each well of the 96-well plates and serially diluted anti-VISTA antibodies were added to the plates. After incubated at 4° C. for 1 hour, plates were washed 3 times with PBST. Then 200 μg/ml VSIG3-hFc fusion proteins were added into the plate. After incubation at 4° C. for 1 hour, the plates were washed with PBS for 3 times and then an PE coupled Goat Anti-human IgG (Thermofisher, USA, Cat # PAI-86078) diluted 500× was added to the plates. After incubation at 4° C. for 1 hour, the plates were washed with PBS for 3 times and then cell fluorescence was monitored using a FACS machine (BD).

[7] = target: T6, human VISTA expressed on HEK293A cells; test: FACS on HEK-293A/hVISTA cells
Description: as §2

EC50 [1]: 0.45 nM
EC50 [2]: 0.32 nM
EC50 [3]: 1.2 nM
binding result [4]: no binding
EC50 [6]: 19 nM
EC50 [7]: 0.6 nM
B1: mouse 161E5 anti-VISTA antibody (antibody, V domains shown)
VH: QVQLKQSGAELVRPGASVKLSCKASGYSFTDYYINWVKQRPGQGLEWIARIFPGSGNAYYNEKFKDKATLTVEKSSSAAYMQLSSLTSEDSAVYFCARDDSFYGYWYFDVWGTGTTVTVSS
VL: NIMMTQSPSSLAVSAGEKVTMSCKSSQSVLYSSNQKNYLAWYQQKPGQSPKLLIYWASTRESGVPDRFTGSGSGTDFTLTISSVQAEDLAVYYCHQYLSSYTFGGGTKLEIK
notes: also called mouse anti-VISTA antibodies from clone 161E5; murine antibody 161E5
binding result [5]: no binding (tested: starting from 40000 ng/ml)
